In assay [1] the test system is hPASMCs. The assay is described as follows: TUNEL apoptosis assay in hPASMCs. The class given is cell-based, human. As to conditions: H2O2 100 μM + rhNAMPT 20 μg/ml, 24 hrs. The method, then:
hPASMCs were cultured on a coverslip in a 6-well cell culture plate. H2O2 (100 μM, Sigma, Cat. #ab66110) was used as an apoptosis stimulus for hPASMCs.
When cell confluence reached 95%, cells were starved for 3 hrs and stimulated by H2O2, FK866 (10 μM), H2O2+rhNAMPT (20 μg/ml) or H2O2+rhNAMPT (20 μg/ml) with FK866 (10 μM) for 24 hrs. Cell apoptosis was examined using an in situ BrdU-Red DNA fragmentation (TUNEL) kit. The cells on the coverslips were examined using a Nikon Eclipse E800 fluorescence microscope, and the images were processed by MetaMorph software (Molecular Devices, Inc.). Approximately ten images were taken from each condition, and over 500 cells were counted according to DAPI staining.

Another assay has as its system human lung SMC. As to the kind of experiment: BrdU proliferation of human lung SMC exposed to recombinant NAMPT. It counts as cell-based. Particulars: 1, 5, 20 μg/ml. The method, then: Cell proliferation was determined using either a 5-bromo-2′-deoxyuridine (BrdU) incorporation assay or cell counting. BrdU assays (QIA58, Calbiochem, San Diego, Calif.) were performed in a 96-well format according to manufacturer's instructions, using starting cell densities of 4000 cells/well. For cell counting, cells were trypsinized and resuspended after experimental procedures; densities were counted with a TC10™ automated cell counter (Bio-Rad). FBS or PDGF was used as positive controls.

The subject of the next assay is human lung SMCs. The assay is described as follows: Store-operated Ca2+ entry and STIM2/Orai2 expression in human lung SMCs. It counts as cell-based. Particulars: 48 hr. The method, then: Recombinant NAMPT protein (CY-E1251) was obtained from MBL Lifescience. Solubilized protein lysates isolated from lung tissues and cells were used to detect NAMPT, STIM2, ORAI2 and actin as previously described. Cells were lysed in a modified radioimmunoprecipitation assay (mRIPA) lysis buffer with a protease and phosphatase inhibitor cocktail (Sigma Aldrich, St. Louis, Mo.), and protein quantification and Western blot analysis were performed according to standard procedures.
Human Primary Pulmonary Artery Smooth Muscle Cells (hPASMCs) from control and PAH patients were obtained and isolated as previously described from Lonza (CC-2581 and CC-2530) were used for cell transfection and proliferation assays.
[Ca2+]cyt was measured in PASMC loaded with fura-2 (4 mM) in a Nikon digital fluorescent imaging system. Cells were loaded with 4 μM fura-2 acetoxymethyl ester (fura-2/AM) for 60 min at 25° C. and [Ca2+]cyt was measured using a ratiometric method at 32° C. Cyclepiazonic acid (CPA, a specific Ca2+-ATPase inhibitor) was used to induce store-operated calcium entry (SOCE).

Assay [2] deals with hPASMCs. The assay is described as follows: Transwell migration and wound healing assays. Particulars: rhNAMPT 20 μg/ml. The class given is cell-based, human. The method, then: For quantitative data from transwell migration assays (ANOVA P<0.05). 50,000 cells were added into Falcon™ Cell Culture Inserts (Fisher, Cat. #08-771-12) with 8-μm pores in 1 ml of basal medium and 250 μl on the top of the transwell. Cells were then stimulated by vehicle, rhNAMPT (20 μg/ml) with or without FK866 (10 μM) for 48 hrs. Unmigrated cells were then scraped from the top of the filter and the migrated bottom layer of cells were stained by 1% aqueous Crystal Violet solution (Electron Microscopy Sciences, Cat. #RT 26088-10). The transwell bottom was gently separated by a blade and put on a glass slide for imaging.
The migrated cells were counted and quantified. Images were taken by an Olympus BX51Fluorescence Microscope and processed by DPController Software (Oylmpus IMS).
In wound healing assays, approximately 0.5 million human Primary Pulmonary Artery Smooth Muscle Cells (hPASMCs) were seeded to 6-well cell culture plates, a straight line was scratched using a 200-μl pipette tip after cells reached 100% confluence. Three dots were labelled beside each line. […]
Image J software was used to measure the wound line width for all the three spots labeled in each line. Wound closure %={[width (start point)-width (end point)]/width (start point)}×100% was calculated (ANOVA P<0.05).

We go through one molecule from patent publication US10975167B2, “Method to reduce pulmonary arterial hypertension by administering inhibitors of nicotinamide phosphoribotransferase” (Arizona Board of Regents on Behalf of the University of …, priority 2017, dated 2021).

B1: rNAMPT: Recombinant NAMPT protein (CY-E1251) from MBL (protein)
chain: MNPAAEAEFNILLATDSYKVTHYKQYPPNTSKVYSYFECREKKTENSKLRKVKYEETVFYGLQYILNKYLKGKVVTKEKIQEAKDVYKEHFQDDVFNEKGWNYILEKYDGHLPIEIKAVPEGFVIPRGNVLFTVENTDPECYWLTNWIETILVQSWYPITVATNSREQKKILAKYLLETSGNLDGLEYKLHDFGYRGVSSQETAGIGASAHLVNFKGTDTVAGLALIKKYYGTKDPVPGYSVPAAEHSTITAWGKDHEKDAFEHIVTQFSSVPVSVVSDSYDIYNACEKIWGEDLRHLIVSRSTQAPLIIRPDSGNPLDTVLKVLEILGKKFPVTENSKGYKLLPPYLRVIQGDGVDINTLQEIVEGMKQKMWSIENIAFGSGGGLLQKLTRDLLNCSFKCSYVVTNGLGINVFKDPVADPNKRSKKGRLSLHRTPAGNFVTLEEGKGDLEEYGQDLLHTVFKNGKVTKSYSFDEIRKNAQLNIELEAAHH
Turning to B1, in the assay with hPASMCs [1], the “hPASMC apoptosis (TUNEL positive cells)” value is listed as “inhibits”. In the assay on human lung SMC, the “human lung SMC proliferation” value is on record as “dose-dependently stimulating”. Also, the “cyclopiazonic acid (CPA)-mediated store-operated Ca2+ entry (SOCE)” value in the assay with human lung SMCs (20 μg/ml) is “augments”. Moreover, in the assay on human lung SMCs, the “expression of Orai2” value was “increases” and the “expression of STIM2” value was “increases”. Besides, the “human PASMC migration” value in the assay on hPASMCs [2] was “promotes”.
